The source of these data is paper PMC8445900.

This assay concerns the target SARS-CoV-2 spike protein receptor-binding domain, wildtype (SARS-CoV-2) (UniProt P0DTC2). Put plainly: ITC. Background: In ITC the heat of successive injections is recorded.

In general, Kd refers to a measure of binding affinity in units of concentration. A lower Kd goes with higher affinity. The substance “CC12.1 single-chain fragment variable (scFv)” came in with a Kd of 28 nM and a dH of -4.8 kcal/mol.
